Source: the Human Domainome abundance scans (Beltran et al. 2025)
± gives the uncertainty stated by the source.

B1: Pituitary-specific positive transcription factor 1, residues 130 to 198; numbered along this chain, P28069 (parent)
chain: RELEKFANEFKVRRIKLGYTQTNVGEALAAVHGSEFSQTTICRFENLQLSFKNACKLKAILSKWLEEAE

Variants of: B1
Assay: abundance fitness (aPCA) (normalised: wild type 0, dead -1); higher = more abundant; growth selection in yeast, the domain comes from the species named
Settings: Homo sapiens

Row | Variant | abundance fitness
1 | V12K | -0.071 ± 0.088
2 | V12W | -0.56 ± 0.22
3 | V12A | 0.173 ± 0.06
4 | V12F | -0.318 ± 0.15
5 | V12P | -0.772 ± 0.48
6 | V12Q | 0.16 ± 0.23
7 | V12D | -0.175 ± 0.12
8 | V12R | -0.101 ± 0.12
9 | V12Y | -0.295 ± 0.16
10 | V12L | -0.16 ± 0.059
11 | V12H | 0.095 ± 0.12
12 | V12C | -0.183 ± 0.11
13 | V12E | 0.275 ± 0.063
14 | V12S | 0.089 ± 0.076
15 | V12M | -0.045 ± 0.089
16 | V12I | -0.002 ± 0.11
17 | R13D | -0.803 ± 0.36
18 | R13N | -0.618 ± 0.44
19 | R13A | -0.179 ± 0.073
20 | R13E | -0.976 ± 0.3
21 | R13P | -0.898 ± 0.27
22 | R13K | -0.308 ± 0.13
23 | R13F | -0.872 ± 0.4
24 | R13W | -0.733 ± 0.22

Row | Variant | abundance fitness
25 | R13Q | -0.193 ± 0.12
26 | R13S | -0.924 ± 0.26
27 | R13L | -0.913 ± 0.35
28 | R13T | -0.913 ± 0.3
29 | R13V | -0.734 ± 0.1
30 | R13G | -0.69 ± 0.12
31 | F10W | -0.961 ± 0.24
32 | F10G | -1.05 ± 0.17
33 | F10T | -0.915 ± 0.28
34 | F10K | -0.721 ± 0.49
35 | F10Y | -0.518 ± 0.23
36 | F10L | -0.731 ± 0.081
37 | F10V | -0.649 ± 0.12
38 | F10N | -0.59 ± 0.31
39 | F10I | -0.963 ± 0.39
40 | F10Q | -0.434 ± 0.12
41 | F10M | -0.621 ± 0.2
42 | F10A | -0.803 ± 0.17
43 | F10S | -0.544 ± 0.086
44 | F10H | -0.762 ± 0.34
45 | F10P | -0.931 ± 0.39
46 | F10C | -0.923 ± 0.39
47 | F10R | -0.738 ± 0.12
48 | R14V | -0.712 ± 0.2

Row | Variant | abundance fitness
49 | R14Q | -0.74 ± 0.35
50 | R14C | -0.79 ± 0.32
51 | R14L | -0.72 ± 0.18
52 | R14H | -0.253 ± 0.22
53 | R14S | -0.995 ± 0.2
54 | R14P | -0.781 ± 0.27
55 | R14M | -0.645 ± 0.19
56 | R14G | -0.8 ± 0.17
57 | R14E | -0.952 ± 0.37
58 | R14D | -0.725 ± 0.42
59 | R14N | -0.897 ± 0.35
60 | R14T | -0.878 ± 0.15
61 | K11D | -1.02 ± 0.43
62 | K11R | -0.021 ± 0.051
63 | K11Q | -0.507 ± 0.064
64 | K11M | -0.546 ± 0.16
65 | K11W | -0.911 ± 0.28
66 | K11E | -0.786 ± 0.15
67 | K11L | -0.973 ± 0.2
68 | K11V | -0.694 ± 0.15
69 | K11I | -0.458 ± 0.15
70 | K11C | -0.795 ± 0.2
71 | K11F | -1.02 ± 0.39
72 | K11S | -0.65 ± 0.14

Row | Variant | abundance fitness
73 | K11G | -0.6 ± 0.11
74 | E4D | -0.612 ± 0.32
75 | E4P | -0.898 ± 0.15
76 | E4K | -0.084 ± 0.08
77 | E4Q | -0.245 ± 0.27
78 | E4M | -0.451 ± 0.21
79 | E4I | -0.145 ± 0.069
80 | E4R | -0.229 ± 0.058
81 | E4G | -0.848 ± 0.35
82 | E4F | -0.316 ± 0.087
83 | E4Y | -0.604 ± 0.24
84 | E4V | -0.072 ± 0.07
85 | E4S | -0.157 ± 0.079
86 | E4L | -0.579 ± 0.11
87 | E4T | -0.249 ± 0.074
88 | E9R | -0.645 ± 0.16
89 | E9A | -0.156 ± 0.076
90 | E9D | 0.031 ± 0.074
91 | E9T | -0.398 ± 0.077
92 | E9S | -0.213 ± 0.082
93 | E9F | -0.239 ± 0.23
94 | E9M | -0.11 ± 0.056
95 | E9W | -0.057 ± 0.085
96 | E9Y | -0.72 ± 0.16

Row | Variant | abundance fitness
97 | E9P | -0.917 ± 0.31
98 | E9L | -0.246 ± 0.1
99 | E9V | -0.65 ± 0.1
100 | E9Q | -0.188 ± 0.084
101 | E9K | -0.323 ± 0.091
102 | E9C | -0.714 ± 0.26
103 | N8F | -0.262 ± 0.073
104 | N8D | -0.532 ± 0.17
105 | N8Q | 0.12 ± 0.17
106 | N8A | 0.133 ± 0.064
107 | N8V | -0.224 ± 0.12
108 | N8G | -0.336 ± 0.12
109 | N8S | 0.034 ± 0.059
110 | N8L | 0.093 ± 0.072
111 | N8I | 0.024 ± 0.14
112 | N8M | -0.027 ± 0.11
113 | N8E | -0.168 ± 0.15
114 | N8T | -0.04 ± 0.1
115 | N8P | -0.783 ± 0.37
116 | N8R | 0.188 ± 0.076
117 | N8C | -0.496 ± 0.16
118 | N8W | -0.414 ± 0.097
119 | N8Y | -0.094 ± 0.15
120 | N8K | 0.155 ± 0.12

Row | Variant | abundance fitness
121 | K5F | -0.46 ± 0.14
122 | K5P | -1.07 ± 0.16
123 | K5L | -0.227 ± 0.039
124 | K5R | -0.117 ± 0.043
125 | K5W | -0.596 ± 0.063
126 | K5T | -0.21 ± 0.066
127 | K5Q | -0.172 ± 0.064
128 | K5D | 0.048 ± 0.074
129 | K5E | -0.062 ± 0.049
130 | K5N | -0.079 ± 0.056
131 | K5V | -0.278 ± 0.041
132 | K5G | -0.478 ± 0.071
133 | K5Y | -0.236 ± 0.096
134 | K5I | -0.079 ± 0.054
135 | K5S | -0.278 ± 0.044
136 | K5A | -0.015 ± 0.045
137 | K5H | -0.135 ± 0.065
138 | K5C | -0.647 ± 0.089
139 | F6C | -0.992 ± 0.17
140 | F6M | -0.753 ± 0.095
141 | F6V | -0.941 ± 0.11
142 | F6R | -0.844 ± 0.086
143 | F6S | -0.997 ± 0.13
144 | F6N | -0.88 ± 0.21

Row | Variant | abundance fitness
145 | F6Q | -0.916 ± 0.13
146 | F6D | -1.06 ± 0.22
147 | F6K | -0.756 ± 0.18
148 | F6E | -0.791 ± 0.14
149 | F6G | -0.688 ± 0.053
150 | F6W | -0.333 ± 0.052
151 | F6H | -0.726 ± 0.12
152 | F6A | -0.666 ± 0.11
153 | F6P | -0.835 ± 0.19
154 | F6T | -0.992 ± 0.17
155 | F6Y | -0.837 ± 0.1
156 | A7T | -0.356 ± 0.17
157 | A7M | -0.551 ± 0.15
158 | A7S | -0.425 ± 0.19
159 | A7H | -0.973 ± 0.34
160 | A7G | -0.885 ± 0.16
161 | A7Q | -0.944 ± 0.46
162 | A7C | -0.21 ± 0.061
163 | A7L | -0.975 ± 0.13
164 | A7D | -0.783 ± 0.15
165 | A7E | -0.235 ± 0.11
166 | A7R | -0.7 ± 0.094
167 | A7I | 0.162 ± 0.11
